In a protein production outcome set (Wang et al. 2014) one finds protein production data, which are given here for 20 sequences.

This series can be described thus: label from the status in PepcDB records.
On to “MAESPRRETLIGGAVVLLGVALLAATSINRHDASGQAGAYQVEAVFNRTDGIGIGSPVRLAGIPIGRIVGHKLDPEYRAIVTMRLDLPNELPDDTAAKIQTDGLLGSKYIELVSLGGGYGTIAPGGRLDYSQDSVIVEDLLVKIVAMAKIKRGLDPDIPAAEQQKAKAASHPQAPPPGGAGDPGDPFGGGAVAPPEVNPFAPGPFEDDPPPPEPGVFSPDPGRDGVSEPPPAQDTRHDMRTNTLNDTAGTAPGAVTLASLPAVQADVEEGR”, for which the protein production entry is reported as “failed”.

In the case of “MSIESFNLLLLVMGLVALVVFIALYFVRAGYGMFRSRSWGISVNNKIAWILMEAPVFLVMGWLWWHSDRRFLPVELTFFLFFQLHYFQRAFVFPFLMKGKSKMPVLILLMGVIFNILNGLMQGEWIFYLAPSDYYTPGWLLTPCFWIGTLLFFAGMGINWHSDSVIRHLRAPGDTRHYLPQRGMYRYVTSANYLGEIVEWVGWAILTWSLSGCIFAWWTVANLVPRADAIWHRYREEFGTQVGLKKRIFPFLY”, the protein production result is “failed”.

For “MKTYALVMAGGRGERLWPLSREDRPKPFLPLFEGKTLLEATLERLAPLVPPERTLLAVRRDQEAVARPYADGIRLLLEPLGRDTAGAVLLGVAEALKEGAERLLVLPADHYVGDDEAYREALATMLEAAEEGFVVALGLRPTRPETEYGYIRLGPREGAWYRGEGFVEKPSYAEALEYIRKGYVWNGGVFAFAPATMAELFRRHLPSHHEALERLLAGASLEEVYAGLPKISIDYGVMEKAERVRVVLGRFPWDDVGNWRALERVFSQDPHENVVLGEGRHVALDTFGCVVYADRGVVATLGVSGLVVAKVGDEVLVVPKDWAREVREVVKRLEAQE”, the protein production entry is reported as “not failed”.

Take “MEAKKYQAFWRGAIILTIASFVTKVLSAFYRIPYQNIAGDVGFYIYQQIYPFYGFCLILATYGFPVIISKMVAERLERGKQKEAEEIICVSFWFLLGIGFIGFFTLFFGAETIAVAMGDIHLDKLLRVISFSFLLMPFLSVARGYFQGFNNMMPTAVSQVIEQTIRVSIIVFLSLFLIAHGFDLYTVGAGAMLGSIAGGLIGIIVLILYMRQDFRSIFFKSAARIKGKRKIVKILFWQGLAICVSNLVLIFIQMADSVSFYSLLIGAGEQAENAKVLKGVYDRSIPLMQLGTVVTTSFSLSLIPIITAAKERGDLSFIQEKVKLAMKITFVIGLAAAIGLTCIIQPTNIMLFENSDGSDVLSILSLSILFSSLSITTASILQGLGQTFKPALFVVFAGCLKLALNYIFMPYFGVKGAAFATLCALIIISGLNSLLLTRAVSGSLINKRNMLGIVISGICMGFVLMMFTRVLQMSGLVINTEHRGSATLEALLGVAIGGLTYMFFILKLRVFTKKELGTVMKQEKKEGSLKKSG”: the protein production entry was “failed”.

As to “MSAECWAALLHDPMTLDMDAVLSDFVRSTGAEPGLARDLLEGKNWDLTAALSDYEQLRQVHTANLPHVFNEGRG”, the protein production entry is given as “not failed”.

On to “MLIKLTGGTVYDPANGIDGQVRNLFIRDGRIVHSLNGATPDQEYDLRGKVVMAGAIDMHTHIGGGKVTIARNLLPEDHRADPEPRRGLMRAGCGHAAPSTLTTGYRYAEMGYTAGFEPAVLPINARQAHMEMADVPLLDVGGYVMLGSDDFFLRLLSAGSDQKLINDYVAWTIRSAKAIGIKVVNPGGISAFKFNQRMLDLDEKHVYYGVTPRQILKSLARAVHELGVPHPLHVHGCNLGVPGNVETTLNTISGIEGLPMHLTHIQFHSYGVEGDRKFSSGAARIAEAINANKNITIDVGQILFGQTVTASGDSMRQHANAGHAHPDKWVCMDIECDAGCGVVPFKYRDKNFVNALQWCIGLETFLLIDDPWRVFLTTDHPNGAPFTTYPHLIRLLMDKSFRNDMLATINPEAAALSTLGSIDREYSLYEIAIMTRAGAARLLGLTDRGHLGAGAAADITVYTDQADKEKMFTRPDYVFKDGELVVRNGEVVKVVWGNLHTVQPEFDNGIEARLRDYFDRYHTMKLDNFVINDWEIEGDGRSKILVHPCHQGTRSLEHHHHHH”, for which the protein production entry is “failed”.

For “MKITMRVSVPLSPRQAASQPVPSHRCLHVWPFIRPSLLRPELTMPSGCRCLNLVCLLCILGATSQPARADDCSSHCDLAHGCCAPDGSCRCDPGWEGLHCERCVRMPGCQHGTCHQPWQCICHSGWAGKFCDKDEHICTSQSPCQNGGQCVYDGGGEYHCVCLPGFHGRGCERKAGPCEQAGFPCRNGGQCQDNQGFALNFTCRCLAGFMGAHCEVNVDDCLMRPCANGATCIDGINRFSCLCPEGFAGRFCTINLDDCASRPCQRGARCRDRVHDFDCLCPSGYGGKTCELVLPAPEPASVGTPQMPTSAVVVPATGPAPHSAGAGLLRISVKEVVRRQESGLGESSLVALVVFGSLTAALVLATVLLTLRAWRRGICPTGPCCYPAPHYAPARQDQECQVSMLPAGFPLSPDLPPEPGKTTAL”, the protein production result is recorded as “failed”.

Turning to “MVKLDRYIGVTVFVAILAVLGVILGLALLFAFIDELNDISASYGIGDALRFIFLTAPRRAYDMLPMAALIGCLVGLGTLASNSELTIMRAAGVSLSRIVWAVMKPMLVLMLAGILVGEYVAPWTENIAQSGRALAQGGGDSQSSKRGLWHRQGREYIHINAVQPNGVLYGVTRYRFDEQRGLESASFAKRARFETDHWQLEEVTTTLLHPREKRSEVVKLPTERWDAQLSPQLLNTVVMEPEALSISGLWQYIHYLADQGLNNNRYWLAFWTKVLQPLVTAALVLMAISFIFGPLRSVTLGQRIFTGVLVGFVFRIAQDLLGPSSLVFDFPPLLAVVIPASICALAGVWLLRRAG”, the protein production entry is “failed”.

Take “MPYKTKSDLPESVKHVLPSHAQDIYKEAFNSAWDQYKDKEDRRDDASREETAHKVAWAAVKHEYAKGDDDKWHKKS”: the protein production result is recorded as “not failed”.

Take “MKVLGISCSPRPGQTTDRLVQEVLNNIEAPTEFVSLSGRRIGPCLGCLGCVADNVCKVRDDMGELRPLIVEADALVIGAPNYFGMLNGLAHCFLERLYQFRHQEGGALHGKLGVAVGVGSAMPDSAVRDIEKFFSFSRIEPVGNVTAIGPASCFNCGHGEECREGAIHRVFGPGTKITADLTPNLSKQPDSLTAARTLGEKLTQRLKQG”: the protein production result is recorded as “failed”.

Turning to “MANSITADEIREQFSQAMSAMYQQEVPQYGTLLELVADVNLAVLENNPQLHEKMVNADELARLNVERHGAIRVGTAQELATLRRMFAIMGMYPVSYYDLSQAGVPVHSTAFRPIDDASLARNPFRVFTSLLRLELIENEILRQKAAEILRQRDIFTPRCRQLLEEYEQQGGFNETQAQEFVQEALETFRWHQSATVDEETYRALHNEHRLIADVVCFPGCHINHLTPRTLDIDRVQSMMPECGIEPKILIEGPPRREVPILLRQTSFKALEETVLFAGQKQGTHTARFGEIEQRGVALTPKGRQLYDDLLRNAGTGQDNLTHQMHLQETFRTFPDSEFLMRQQGLAWFRYRLTPSGEAHRQAIHPGDDPQPLIERGWVVAQPITYEDFLPVSAAGIFQSNLGNETQTRSHGNASREAFEQALGCPVLDEFQLYQEAEERSKRRCGLLLEHHHHHH”, the protein production result was “not failed”.

In the case of “MKKGIQPLKWKDVPALAVLGFFSVTLHHLLINTGQQYVTAVASSILSQSIPLFTFIISALLFKEQISFKQWLCILLGLCGAVLVVSGDHGFGMPSPYSLLIVLAAIAWGLYFNLYKKFALNYDALSMMCYIIWFGTLPLLFYSAHLPSEILHATWQANMSVVLLGIFPSAMAYVLWGYVLKNMPLTIASNFLYCSPIVAMSLAVLFLNEKPSIIVLLGGVIIVGSLVWMNWGRKK”, the protein production entry is on record as “failed”.

Take “APHGPGLIYRQPNCDDPETEEAALVAIDYINQNLPWGYKHTLNQIDEVKVWPQQPSGELFEIEIDTLETTCHVLDPTPVARCSVR”: the protein production result is “failed”.

As for “MRFRDRRHAGALLAEALAPLGLEAPVVLGLPRGGVVVADEVARRLGGELDVVLVRKVGAPGNPEFALGAVGEGGELVLMPYALRYADQSYLEREAARQRDVLRKRAERYRRVRPKAARKGRDVVLVDDGVATGASMEAALSVVFQEGPRRVVVAVPVASPEAVERLKARAEVVALSVPQDFAAVGAYYLDFGEVTDEDVEAILLEWAG”, the protein production entry is listed as “not failed”.

Regarding “MHLDPDACYHAVQSRDRRFDGWFFVGVTSTGVYCRPICAVRTPLQKNCRFFASAAAAEKAGFRPCLRCRPELAPGHSLAEMSSSLARAAARMIDEGFLQQHDLAALAAAVGVTDRHLRRIFRAEFDVSPIEYAQTQRLLLAKRLLTDTAMPVGDVAYAAGFGSVRRLNSGFAEHYGFAPTRLRTRAAPVSRGDDGATLMLGYRPPFAWHALLDFLRARAVDGVEVVDAHSYARTIALDYAGRRHAGWLRARDVPQRHAIALTLSASLVQAMPPVLARVRRLFDLDCRPDLVDTHLGTLAAGTPGLRVPGAVDGFEIAVRAIAGQVVSLARARRILARLAAAYGTPLAQPRAGLPTAFPSATALASVDPQALSGETGLQASRAAAMVEIARAIDAGRLRLEPLVPLAPTLAALQALSGIGEWTAQYIAMRALGWPNAFPLGDYVLRKRLADHDGTLPTRHAMATRAEDWAPWRAYAAMHLWHRDDAQAPTP”, the protein production entry is listed as “failed”.

As to “MSATAAARKRGKPASGAGAGAGAGKRRRKADSAGDRGKSKGGGKMNEEISSDSESESLAPRKPEEEEEEELEETAQEKKLRLAKLYLEQLRQQEEEKAEARAFEEDQVAGRLKEDVLEQRGRLQKLVAKEIQAPASADIRVLRGHQLSITCLVVTPDDSAIFSAAKDCSIIKWSVESGRKLHVIPRAKKGAEGKPPGHSSHVLCMAISSDGKYLASGDRSKLILIWEAQSCQHLYTFTGHRDAVSGLAFRRGTHQLYSTSHDRSVKVWNVAENSYVETLFGHQDAVAALDALSRECCVTAGGRDGTVRVWKIPEESQLVFYGHQGSIDCIHLINEEHMVSGADDGSVALWGLSKKRPLALQREAHGLRGEPGLEQPFWISSVAALLNTDLVATGSHSSCVRLWQCGEGFRQLDLLCDIPLVGFINSLKFSSSGDFLVAGVGQEHRLGRWWRIKEARNSVCIIPLRRVPVPPAAGS”, the protein production entry is “failed”.

On to “MYAIAEDTLPARVLKELLLYRRRYPEHRQSASEADEIRRIEQVQLPRIAAFIEAGEPIEFVLPAFPAKSPNPGKVLDSRPDMAERLSLSFLNHLCQRIQLFYAPGAKITVCSDGRVFGDLVRIGDAHISAYQDALRLMIEEIGATHIGVFNLEDVRAFEAQRDNHEQLRQLLIGGYAEPLESIRETLLASEEGLLLYRAITRFLYEDGLTPDYQGSKTALQRDAKERAYGVIQRSWAWGALLADQFPRAIRLSIHPQPADSLKFGIHMMPTRDDWLTPWHGVAVNTEDRFVLMKRSEVLELGGELVQINGQPSHYRLPARAARRAAVALEHHHHHH”, for which the protein production result is “failed”.

As for “VVAPITTGYTVKISNYGWDQSDKFVKIYITLTGVHQVPTENVQVHFTERSFDLLVKNLNGKSYSMIVNNLLKPISVEGSSKKVKTDTVLILCRKKVENTRWDYLTQVEKECKEK”, the protein production entry was “not failed”.

With “MLVNGQHYHLINDISGEKPVLLMLHGFTGSSETFQDSISLLKEHFSIIAPDLLGHGKTSCPKEVARYSIENICDDLASILHQLKIDSCFVLGYSMGGRVATAFAAKYKELVRGLVLVSSSPGLRDEKARASRISADNRLADTLDADGIEPFVAYWENLALFASQKNLPFALKKRIRLERLAQNPHGLAKSLRGMGTGKQPSYWENLADFTFPVLLITGNLDEKFEKIAREMKQLLPNSTHVTVQEAGHAVYLEQPNIFSSQLIYWLEGILKEEEK”, the protein production entry was “failed”.

As for “MEISTKTLHFIEEHREDDTRTLALQSKKYPDVDMAAAVTQIAGRQVAARKIPSWYPVSALWYPPHLSMEQCSSEATALYKASLLEGDTFADLTGGFGIDCSFISRNFKQADYVERQSGLCELALHNFPLLGLGHIRIHNRDGISYLQEMLPVDCLFLDPARRDGHGGKTVAISDCEPDVTVLEPLLVDKAKKVMVKLSPMLDLSLALNELKTVRAVHIVAVNNECKELLLILQKESVSSEVSIHCEHIAGNGESRHYTFTLKQEKTSPCLLADEVGTYLYEPNAAILKAGAFRSLTQTYPVAKLHLNSHLYTSVSLVPDFPGRRFRVEAVSGFGKKELKAFLMDMDKANITIRNFPLSVAELRKRLKLKEGGDDYIFATTLSGGQKVLIRGKKC”, the protein production result is reported as “not failed”.
